Assay results as given in article PMC10238739, “Interaction with single-stranded DNA-binding protein modulates Escherichia coli RadD DNA repair activities” (The Journal of Biological Chemistry, 2023).
Residue numbers refer to the chain shown, from its start. Names and notes keep the numbering of the source.

B1: RadD (Escherichia coli K-12; R21E) (protein)
chain: MIFTLRPYQQEAVDATLNHFERHKTPAVIVLPTGAGKSLVIAELARLARGRVLVLAHVKELVAQNHAKYQALGLEADIFAAGLKRKESHGKVVFGSVQSVARNLDAFQGEFSLLIVDECHRIGDDEESQYQQILTHLTKVNPHLRLLGLTATPFRLGKGWIYQFHYHGMVRGDEKALFRDCIYELPLRYMIKHGYLTPPERLDMPVVQYDFSRLQAQSNGLFSEADLNRELKKQQRITPHIISQIMEFAATRKGVMIFAATVEHAKEIVGLLPAEDAALITGDTPGAERDVLIENFKAQRFRYLVNVAVLTTGFDAPHVDLIAILRPTESVSLYQQIVGRGLRLAPGKTDCLILDYAGNPHDLYAPEVGTPKGKSDNVPVQVFCPACGFANTFWGKTTADGTLIEHFGRRCQGWFEDDDGHREQCDFRFRFKNCPQCNAENDIAARRCRECDTVLVDPDDMLKAALRLKDALVLRCSGMSLQHGHDEKGEWLKITYYDEDGADVSERFRLQTPAQRTAFEQLFIRPHTRTPGIPLRWITAADILAQQALLRHPDFVVARMKGQYWQVREKVFDYEGRFRLAHELRG
notes: full-length, untagged; expressed from plasmid pEAW724 in E. coli STL2669/pT7pol26; conventional chromatography
B2: RadD (Escherichia coli K-12; R145E) (protein)
chain: B1 chain with E21R, R145E
notes: as for B1
B3: RadD (Escherichia coli K-12) (protein)
chain: B1 chain with E21R
notes: as for B1
B4: RadD (Escherichia coli K-12; R49E) (protein)
chain: B1 chain with E21R, R49E
notes: as for B1
B5: Escherichia coli RadD, wild type (enzyme, E. coli)
chain: B1 chain with E21R
B6: RadD R49E (enzyme)
chain: B1 chain with E21R, R49E
B7: RadD R145E (enzyme)
chain: B1 chain with E21R, R145E
B8: RadD R21E (enzyme)
chain: B1 chain

substrate: Nc1ncnc2c1ncn2[C@@H]1O[C@H](COP(=O)(O)OP(=O)(O)OP(=O)(O)O)[C@@H](O)[C@H]1O; test: coupled spectrophotometric ATPase assay (NADH oxidation); format: biochemical, Escherichia coli; details: no SSB, no DNA, 200 nM RadD, 10 mM Mg acetate, 200 mM K glutamate, pH 7.5, 37 °C
Description: coupled spectrophotometric ATPase assay (NADH oxidation) on RadD

Binder | Km [µM] | Vmax [µM/min]
B1 | 654 ± 52 | 42.3
B2 | 698 ± 75 | 28.4
B3 | 640 ± 76 | 29.4
B4 | 464 ± 44 | 51

target: Escherichia coli single-stranded DNA-binding protein (SSB), full-length (E. coli, UniProt P0AGE0 1-178); test: cell-based or functional assay; details: not given
Sequence (P0AGE0 whole entry): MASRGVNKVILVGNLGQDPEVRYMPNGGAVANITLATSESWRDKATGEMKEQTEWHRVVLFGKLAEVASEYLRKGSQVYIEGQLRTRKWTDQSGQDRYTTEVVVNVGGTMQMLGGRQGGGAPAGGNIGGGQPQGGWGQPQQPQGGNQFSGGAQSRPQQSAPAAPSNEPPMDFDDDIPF

Binder | ATPase rate of 200 nM RadD on titration of SSB from 0 to 40 μM [fold]
B5 | ~3

target: FAM labeled SSB C-terminal peptide … (E. coli); test: fluorescence polarisation; fluorescence anisotropy; 10 nM 5-FAM SSB C-terminal peptide, RadD or variant titrated up to 30 μM; 25 mM Tris-acetate pH 7.5, 200 mM potassium glutamate, 10 mM magnesium acetate, 1 mM DTT, 0.1 μg/ml BSA; 15 min at room temperature; apparent KD, one-site fit; details: not given

Binder | Kd [µM]
B5 | 5.4
B6 | > 30
B7 | > 30
B8 | > 30
